We go through three molecules from patent US7067302B2, “DNA and amino acid sequence of a tyrosine ammonia lyase enzyme from the bacterium Rhodobacter sphaeroides” (E. I. du Pont de Nemours and Company, priority 2002, dated 2006).

A short description of data set [1]: Kinetic analysis of purified RsTAL with tyrosine (Lineweaver-Burk). It is filed as biochemical. The procedure:
Crude cell extracts were generated by sonication of a suspension of the transformed cells, followed by centrifugation. The TAL enzyme activity of the crude cell extracts was determined by an enzyme assay using 40 μg of crude cell extract in 10 mM Tris-HCl, pH 8.5 buffer containing 1 mM tyrosine. The OD of the pHCA produced was followed at 315 nm with an extinction coefficient of […]. The results of the TAL enzyme assay are given in Table 5 in terms of activity units. A unit (U) is defined as follows: one unit of activity deaminated 1 μmol of tyrosine to pHCA per min.
(§1) A 500 mL culture of the E. coli BL21(DE3)RP(pKK233.RsTAL2) strain was grown in LB Broth, containing […] ampicillin to mid log phase, induced with 1 mM IPTG, and incubated overnight (18 h) in a 37° C. shaker. The cells were centrifuged and resuspended in 10 mL of Buffer A (50 mM Tris-HCl, pH 8.5 buffer, 5 mM DTT (dithiothreitol), and 1 mM tyrosine) containing one and a half EDTA-free protease inhibitor tablets (Roche Applied Science, Indianapolis, Ind.). The cells were then passed through a French Press Cell twice, and centrifuged at 18000 rpm for 20 min. Ammonium sulfate at 30% saturation was added to the […] supernatant and the resulting precipitate was removed by centrifugation. The supernatant from this first fractionation was then treated with ammonium sulfate at 50% saturation. […] The eluted fractions were analyzed for TAL activity, and the fractions containing TAL activity were pooled, precipitated again using ammonium sulfate at 50% saturation, and desalted using a 3 mL desalting column (Bio-Rad Laboratories, Hercules, Calif.). […] TAL activity was detected in the flow-through fractions. […]
The kinetic parameters of the RsTAL enzyme were characterized using'the TAL enzyme assay described above. The initial rates of the enzyme reaction were measured at tyrosine concentrations of 0.01 to 10 mM in 50 mM Tris-HCl, pH 8.5 buffer. The values of kcat and Km of the RsTAL enzyme for both tyrosine and phenylalanine were determined using Lineweaver-Burk analysis and the results are given in Table 6.

A short description of data set [2]: Kinetic analysis of purified RsTAL with phenylalanine (Lineweaver-Burk). The conditions noted are these: substrate phenylalanine. The data set is classed as biochemical. The procedure:
as §1
The kinetic parameters of the RsTAL enzyme were characterized using'the TAL enzyme assay described above. The initial rates of the enzyme reaction were measured at tyrosine concentrations of 0.01 to 10 mM in 50 mM Tris-HCl, pH 8.5 buffer. […]

For data set [3] the following is noted: literature values; cited from earlier work.
The mark [4] stands for this setting: substrate tyrosine, 50 mM Tris-HCl, pH 8.5.

B1: RsTAL: the TAL enzyme from Rhodobacter sphaeroides, 526 amino acids, SEQ ID NO:3 (protein)
chain: VKPMLAMSPPKPAVELDRHIDLDQAHAVASGGARIVLAPPARDRCRASEARLGAVIREARHVYGLTTGFGPLANRLISGENVRTLQANLVHHLASGVGPVLDWTTARAMVLARLVSIAQGASGASEGTIARLIDLLNSELAPAVPSRGTVGASGDLTPLAHMVLCLQGRGDFLDRDGTRLDGAEGLRRGRLQPLDLSHRDALALVNGTSAMTGIALVNAHACRHLGNWAVALTALLAECLRGRTEAWAAALSDLRPHPGQKDAAARLRARVDGSARVVRHVIAERRLDAGDIGTEPEAGQDAYSLRCAPQVLGAGFDTLAWHDRVLTIELNAVTDNPVFPPDGSVPALHGGNFMGQHVALTSDALATAVTVLAGLAERQIARLTDERLNRGLPPFLHRGPAGLNSGFMGAQVTATALLAEMRATGPASIHSISTNAANQDVVSLGTIAARLCREKIDRWAEILAILALCLAQAAELRCGSGLDGVSPAGKKLVQALREQFPPLETDRPLGQEIAALATHLLQQSPV
modifications: R. sphaeroides
What is called Km is the substrate concentration at which the rate is half of its maximum. In general, kcat refers to the number of substrate molecules converted per active site and unit of time at saturation. Regarding B1, the Michaelis constant (Km) in data set [1] (setting [4]) was found to be 60 µM; in data set [2] it was 560 µM. For the same molecule, the values for the kcat in data set [1] (setting [4]) and in data set [2] were 0.02 s⁻¹ and 0.01 s⁻¹, respectively. In data set [1] (tyrosine versus phenylalanine as substrate), the “TAL/PAL Ratio” value is reported as 19.

B2: wild-type PAL/TAL enzyme from the yeast Rhodosporidium: wild-type PAL/TAL enzyme from the yeast Rhodosporidium (protein, UniProt P11544 1-716, looked up)
Phenylalanine/tyrosine …: MAPSLDSISHSFANGVASAKQAVNGASTNLAVAGSHLPTTQVTQVDIVEKMLAAPTDSTLELDGYSLNLGDVVSAARKGRPVRVKDSDEIRSKIDKSVEFLRSQLSMSVYGVTTGFGGSADTRTEDAISLQKALLEHQLCGVLPSSFDSFRLGRGLENSLPLEVVRGAMTIRVNSLTRGHSAVRLVVLEALTNFLNHGITPIVPLRGTISASGDLSPLSYIAAAISGHPDSKVHVVHEGKEKILYAREAMALFNLEPVVLGPKEGLGLVNGTAVSASMATLALHDAHMLSLLSQSLTAMTVEAMVGHAGSFHPFLHDVTRPHPTQIEVAGNIRKLLEGSRFAVHHEEEVKVKDDEGILRQDRYPLRTSPQWLGPLVSDLIHAHAVLTIEAGQSTTDNPLIDVENKTSHHGGNFQAAAVANTMEKTRLGLAQIGKLNFTQLTEMLNAGMNRGLPSCLAAEDPSLSYHCKGLDIAAAAYTSELGHLANPVTTHVQPAEMANQAVNSLALISARRTTESNDVLSLLLATHLYCVLQAIDLRAIEFEFKKQFGPAIVSLIDQHFGSAMTGSNLRDELVEKVNKTLAKRLEQTNSYDLVPRWHDAFSFAAGTVVEVLSSTSLSLAAVNAWKVAAAESAISLTRQVRETFWSAASTSSPALSYLSPRTQILYAFVREELGVKARRGDVFLGKQEVTIGSNVSKIYEAIKSGRINNVLLKMLA
Regarding B2, the “TAL/PAL ratio (TAL catalytic activity to PAL catalytic activity)” value in data set [3] is on record as 0.58.

B3: TAL enzyme from Trichosporon cutaneum: inducible TAL enzyme isolated from the yeast Trichosporon cutaneum (protein)
chain: MFIETNVAKPASTKAMNAGSAKAAPVEPFATYAHSQATKTVSIDGHTMKVGDVVAVARHGAKVELAASVAGPVRASVDFKESKKHTSIYGVTTGFGGSADTRTSDTEALQISLLEHQLCGFLPTDATYEGMLLAAMPIPIVRGAMAVRVNSCVRGHSGVRLEVLQSFADFINRGLVPCVPLRGTISASGDLSPLSYIAGAICGHPDVKVFDTAASPPTVLTSPEAIAKYGLKTVKLASKEGLGLVNGTAVSAAAGALALYDAECLAIMSQTNTVLTVEALDGHVGSFAPFIQEIRPHAGQIEAARNIRHMLGGSKLAVHEESELLADQDAGILRQDRYALRTSAQWIGPQLEALGLARQQIETELNSTTDNPLIDVEGGMFHHGGNFQAMAVTSAMDSARIVLQNLGKLSFAQVTELINCEMNHGLPSNLAGSEPSTNYHCKGLDIHCGAYCAELGFLANPMSNHVQSTEMHNQSVNSMAFASARRTMEANEVLSLLLGSQMYCATQALDLRVMEVKFKMAIVKLLNETLTKHFAAFLTPEQLAKLNTHAAITLYKRLNQTPSWDSAPRFEDAAKHLVGVIMDALMVNDDITDLTNLPKWKKEFAKEAGNLYRSILVATTADGRNDLEPAEYLGQTRAVYEAVRSELGVKVRRGDVAEGKSGKSIGSSVAKIVEAMRDGRLMGAVGKMF
modifications: T. cutaneum
Take B3: in data set [3], the PAL/TAL activity ratio is 0.73.
